In paper PMC3901395, “Multivalent interactions of the SUMO-interaction motifs in RING finger protein 4 determine the specificity for chains of the SUMO” (Biochemical Journal, 2013):

Legend:
tetra-SUMO2–GFP–HA2 = assay: Proteasomal targeting of tetra-SUMO2–GFP–HA2 by RNF4 in yeast; assay type: cell-based, S. cerevisiae; details: yeast coexpressing RNF4; Western blot, normalized to CDC11
Source text: (§1) For expression in Escherichia coli, linear poly-SUMO chains were generated as described previously with slight modifications. After the combined PCR/ligation reaction, the 4×SUMO2-ΔN11 or 4×SUMO1-ΔN15 DNA polymers were separated from smaller polymers by agarose gel electrophoresis and individually extracted (Macherey–Nagel). These were then subjected to a second PCR with primers to create BamHI and XhoI restriction sites, a C-terminal GG motif and a stop codon. The resulting fragments coding for di-, tri- and tetra-SUMO2-ΔN11 or SUMO1-ΔN15 chains were amplified and cloned into pGEX-4T2. […] Each monomer in these chains is separated by RS replacing the natural GG motif. […]
(§2) wt (wild-type) S. cerevisiae strains (JD47-13C) containing centromeric (low copy) plasmids expressing various (SUMO2)n–GFP–HA2 ([…]) fusions were grown overnight in minimal medium composed of 0.67% yeast nitrogen base with 2% raffinose as a carbon source. Cells from the overnight cultures were used to inoculate cultures with minimal media containing 2% galactose at a starting attenuance measured at 600 nm of 0.25. […] The levels of substrates and, as a loading control, levels of CDC11 were analysed by Western blotting and detection with an Odyssey infrared fluorescence imaging system (LI-COR).

di-SUMO2–GFP–HA2 = assay: Proteasomal targeting of di-SUMO2–GFP–HA2 by RNF4 in yeast; assay type: cell-based, S. cerevisiae
Source text: as §1, §2

tri-SUMO2–GFP–HA2 = assay: Proteasomal targeting of tri-SUMO2–GFP–HA2 by RNF4 in yeast; assay type: cell-based, S. cerevisiae; details: yeast coexpressing RNF4; Western blot, normalized to CDC11
Source text: as §1, §2

[1] = tested on: mono-SUMOs and SUMO chains; assay: ITC binding to mono-SUMOs and SUMO chains (general statements); details: full-length dimerized RNF4 vs SIM domain
Source text: as §1, with “motif. A similar strategy was used to design C-terminally GFP–HA2-tagged linear poly-SUMOs in the copper-inducible Ycplac22 vector for expression in S. cerevisiae.” for “motif.”
The mono-SUMOs and linear poly-SUMO1 and poly-SUMO2 proteins as well as all RNF4 constructs were expressed as GST-fusion proteins from E. coli Rosetta™ 2(DE3)pLysS cells (Novagen) cultivated in LB medium with 100 μg/ml ampicillin and 30 μg/ml chloramphenicol after induction with 0.1 mM IPTG at 20°C for 12 h. […]
Binding of peptides and proteins to SUMOs was investigated by ITC using either a VP-ITC or an ITC200 (GE Healthcare). […] Protein concentrations were determined by measuring the absorption at 280 nm. […]

PML-NBs in HeLa cells = assay: Disruption of PML-NBs by overexpression of RNF4 in HeLa cells; assay type: cell-based; details: HeLa cells transfected with HA-tagged full-length RNF4; automatic image analysis, 30 to 60 cells per condition; GFP control plasmid 12 PML-NBs, untreated average 15
Description: HeLa B-cells were grown on coverslips and fixed in PBS with 3% paraformaldehyde. After permeabilization in PBS with 0.2% saponin (Sigma–Aldrich), cells were blocked in PBS, 3% BSA and 0.2% saponin. Primary and Alexa Fluor®-labelled secondary antibodies (Invitrogen) were applied in blocking buffer. Coverslips were embedded in ProLong® Gold Antifade (Invitrogen) and examined using a Zeiss Axioplan2 fluorescence microscope. Proteins and epitope tags were detected with the following antibodies against PML (A167 and A168; Bethyl), HA (haemagglutinin) (3F10; Roche, 16B12; Covance) and CDC11 (SC-7170; Santa Cruz Biotechnology). The secondary antibodies were labelled with Alexa Fluor® 546, Alexa Fluor® 647 or Alexa Fluor® 670 (Invitrogen), or IRDye800 (Rockland). For quantification of PML-NBs, cells were acquired using a Zeiss Meta 510 Confocal microscope, 63× objective NA (numerical aperture) 1.4 and appropriate laser and filter settings. Z-stacks were taken according to Nyquist criteria. Microscopic pictures were analysed with Volocity 6.2 Cellular Imaging & Analysis Software (PerkinElmer). Transfected cells were automatically identified within the 546 nm channel and the amount of PML-NBs (647 nm channel) that were localized within the nuclei of transfected cells were automatically counted.

B1: RNF4 FL: full-length human RNF4 (RING finger protein 4); FLAG-tagged in yeast, HA-tagged in HeLa cells (protein)
chain: MSTRKRRGGAINSRQAQKRTREATSTPEISLEAEPIELVETAGDEIVDLTCESLEPVVVDLTHNDSVVIVDERRRPRRNARRLPQDHADSCVVSSDDEELSRDRDVYVTTHTPRNARDEGATGLRPSGTVSCPICMDGYSEIVQNGRLIVSTECGHVFCSQCLRDSLKNANTCPTCRKKINHKRYHPIYI
modifications: left off: GST, end not stated, cleaved
notes: full-length human RNF4 (RING finger protein 4); FLAG-tagged in yeast, HA-tagged in HeLa cells
- level of tetra-SUMO2–GFP–HA reporter (control without RNF4 = 100%) (tetra-SUMO2–GFP–HA2): 43%
- level of di-SUMO2–GFP–HA reporter (control without RNF4 = 100%) (di-SUMO2–GFP–HA2; yeast coexpressing RNF4, Western blot, normalized to CDC11): approximately 55%
- targeting of di-SUMO2 in yeast (di-SUMO2–GFP–HA2; yeast coexpressing wt RNF4): efficiently targets di-SUMO2 in yeast
- level of tri-SUMO2–GFP–HA reporter (control without RNF4 = 100%) (tri-SUMO2–GFP–HA2): 45%
- binding to SUMO chains compared with the monomeric SIM domain [1]: stronger as compared with the monomeric SIM domain, especially for short SUMO chains
- number of PML-NBs after transfection (PML-NBs in HeLa cells): approximately five
